For 167 variants, self-cleavage results are on record in the RNAGym collection of RNA variant scans (doi:10.7554/elife.90254).

B1: LINE1-mini (parent)
chain: GGCAGAGCUCAACACAGCGUGGCAAAGUGGCUGUGGCUAGACUGCC

In the data set the parent is B1. The data set can be described thus: self-cleavage, relative activity (ratio to wild type); higher = more cleavage; in vitro, sequencing; the parent is a self-cleaving ribozyme.
With A11G C46U, the self-cleavage came to 0.02.
As to A11G C46G, the self-cleavage stood at 0.02.
With A11G C46A the figure was 0.04.
As for A11G C23A, the self-cleavage turned out to be 0.04.
For the variant A11G C23U, the self-cleavage came out at 0.02.
A11G C23G: the self-cleavage was 0.03.
Next, A11C G30A: 0.08.
Regarding A11C G30U, the self-cleavage is 0.05.
On to A11C G30C, for which the self-cleavage is 0.04.
As for A11U C15G, the self-cleavage stood at 0.02.
For A11U C15U, the self-cleavage was 0.17.
For A11U C15A, the self-cleavage is 0.03.
As for A12C C15G, the self-cleavage was 0.03.
With A12C C15A, the self-cleavage is 0.03.
Turning to A12C C15U, the self-cleavage came out at 0.03.
Turning to A11G A26C, the self-cleavage was found to be 0.03.
In the case of A11G A26G, the self-cleavage turned out to be 0.04.
For A11G A26U, the self-cleavage was determined as 0.02.
For the variant A11U U32G, the self-cleavage was found to be 0.03.
Regarding A11U U32C, the self-cleavage amounted to 0.04.
Take A11U U32A: the self-cleavage was determined as 0.03.
As to A11G U38G, the self-cleavage amounted to 0.02.
A11G U38C: the self-cleavage was determined as 0.03.
On to A11G U38A, for which the self-cleavage is 0.02.
For A11G C31U, the self-cleavage came to 0.02.
Next, A11G C31A: 0.02; A11G C31G: 0.03.
On to A11U G40C, for which the self-cleavage turned out to be 0.02.
With A11U G40U the figure was 0.04; with A11U G40A, 0.03.
Regarding A12C G40A, the self-cleavage was 0.04.
Next, A12C G40C: 0.03; A12C G40U: 0.03.
As to A12C G36U, the self-cleavage worked out at 0.03.
Consider A12C G36C, for which the self-cleavage was determined as 0.02.
Regarding A12C G36A, the self-cleavage worked out at 0.2.
For A11C G27U, the self-cleavage is 0.05.
Consider A11C U28C, for which the self-cleavage stood at 0.03.
For the variant A11C U28G, the self-cleavage stood at 0.05.
With A11C U28A the figure was 0.06; with A11G G29U, 0.03.
In the case of A11G G29A, the self-cleavage was 0.04.
Regarding A11G G29C, the self-cleavage amounted to 0.3.
For A11G G44U, the self-cleavage is 0.01.
With A11G G44C, the self-cleavage was determined as 0.03.
With A11G G44A, the self-cleavage was 0.03.
A11U A25G: the self-cleavage is 0.07.
Regarding A11U A25C, the self-cleavage stood at 0.11.
With A11U A25U the figure was 0.37.
With A11G G19C the figure was 0.03; with A11G G19A, 0.04; with A11G G19U, 0.02.
Next, A12C A16U: 0.01; A12C A16G: 0.02.
In the case of A12C A16C, the self-cleavage is 0.03.
Consider A11C G35U, for which the self-cleavage is 0.02.
With A11C G35C the figure was 0.03; with A11C G35A, 0.03; with A11G C45U, 0.03.
With A11G C45A, the self-cleavage was found to be 0.03.
Next, A11G C45G: 0.03; A11U C37A: 0.02.
As to A11U C37G, the self-cleavage came to 0.02.
Consider A11U C37U, for which the self-cleavage turned out to be 0.01.
A11U A39C: the self-cleavage was determined as 0.07.
Consider A11U A39G, for which the self-cleavage was found to be 0.06.
With A11U A39U the figure was 0.05; with A11G C13U, 0.03.
With A11G C13G the figure was 0.02; with A11G C13A, 0.04; with A12C G44A, 0.03.
Take A11U C46A: the self-cleavage came out at 0.09.
Next, A11U C46G: 0.06; A11U C46U: 0.12; A11C U34A: 0.02.
On to A11C U34C, for which the self-cleavage was 0.04.
Next, A11C U34G: 0.04; A12C C46A: 0.02; A12C C46U: 0.02.
As to A12C C46G, the self-cleavage stood at 0.05.
With A12C C45G, the self-cleavage came out at 0.07.
In the case of A12C C45A, the self-cleavage was 0.03.
Regarding A12C C45U, the self-cleavage was determined as 0.03.
With A11G U32C the figure was 0.04; with A11G U32G, 0.03; with A11G U32A, 0.02.
Regarding A11C G40C, the self-cleavage is 0.04.
With A11C G40U, the self-cleavage was 0.02.
A11C G40A: the self-cleavage worked out at 0.02.
On to A11U C23A, for which the self-cleavage was 0.16.
With A11U C23U the figure was 0.1; with A11U C23G, 0.11; with A11U U43G, 0.
On to A11U U43C, for which the self-cleavage stood at 0.04.
Consider A11U U43A, for which the self-cleavage was 0.02.
Consider A11U G17C, for which the self-cleavage came to 0.12.
Regarding A11U G17U, the self-cleavage amounted to 0.03.
A11U G17A: the self-cleavage is 0.04.
In the case of A11U A24U, the self-cleavage turned out to be 0.21.
With A11U A24C the figure was 0.15; with A11U A24G, 0.15.
For the variant A11U A26U, the self-cleavage turned out to be 0.12.
As to A11U A26C, the self-cleavage was 0.16.
On to A11U A26G, for which the self-cleavage was 0.13.
With A11U G35U, the self-cleavage amounted to 0.02.
In the case of A11U G35A, the self-cleavage was 0.04.
Regarding A11U G35C, the self-cleavage came out at 0.01.
With A11U G33U the figure was 0.04; with A11U G33C, 0.02; with A11U G33A, 0.03.
Consider A11U G19U, for which the self-cleavage came to 0.12.
As to A11U G19A, the self-cleavage was found to be 0.27.
Next, A11U G19C: 0.1; A11U C45A: 0.05.
With A11U C45U, the self-cleavage turned out to be 0.23.
As for A11U C45G, the self-cleavage turned out to be 0.04.
With A11U A41C the figure was 0.04.
With A11U A41U the figure was 0.27; with A11U A41G, 0.05; with A12C G22C, 0.02.
A12C G22A: the self-cleavage stood at 0.03.
With A12C G22U, the self-cleavage worked out at 0.02.
For the variant A11U C13G, the self-cleavage is 0.03.
Take A11U C13A: the self-cleavage was 0.02.
A11U C13U: the self-cleavage was 0.04.
Next, A12C C31A: 0.03; A12C C31G: 0.01; A12C C31U: 0.02.
Take A11G A25G: the self-cleavage was 0.05.
With A11G A25U the figure was 0.02; with A11G A25C, 0.03; with A11U G29A, 0.14.
On to A11U G29U, for which the self-cleavage came to 0.17.
As to A11U G29C, the self-cleavage turned out to be 0.09.
Turning to A11G U28G, the self-cleavage stood at 0.02.
Take A11G U28A: the self-cleavage worked out at 0.03.
Turning to A11G U28C, the self-cleavage amounted to 0.03.
Next, A12C: 0.03; A12C C13U: 0.01.
Next, A12C C13G: 0.04.
For the variant A12C C13A, the self-cleavage came out at 0.08.
Regarding A11U A12U, the self-cleavage was 0.07.
For A11U A12G, the self-cleavage is 0.03.
Consider A11U A12C, for which the self-cleavage turned out to be 0.04.
Take A11G A12U: the self-cleavage stood at 0.04.
For the variant A11G A12G, the self-cleavage was 0.02.
With A11G A12C the figure was 0.02; with A11C G33U, 0.04; with A11C G33C, 0.02.
Next, A11C G33A: 0.04; A12C A24U: 0.03; A12C A24C: 0.01.
Take A12C A24G: the self-cleavage came to 0.04.
With A11G G22C, the self-cleavage was found to be 0.02.
For A11G G22U, the self-cleavage is 0.05.
As to A11G G22A, the self-cleavage was 0.03.
Regarding A12C G19U, the self-cleavage turned out to be 0.03.
With A12C G19A the figure was 0.02; with A12C G19C, 0.02.
With A11U A14C the figure was 0.01; with A11U A14U, 0.08; with A11U A14G, 0.03.
On to A11G, for which the self-cleavage amounted to 0.04.
For the variant A11U, the self-cleavage stood at 0.15.
For A12C A41U, the self-cleavage stood at 0.03.
Take A12C A41C: the self-cleavage came to 0.02.
With A12C A41G the figure was 0.03.
